Measurements from patent US20110059889A1 (SYNTONIX PHARMACEUTICALS, published 2011).
Read-outs that look alike come from different tables or passages of the source. Bridge positions count the residues as written; N and C are the ends. Square brackets hold non-standard residues; d marks the D form. Ends that are not written are not given here. Phe(4-NH2) = Nc1ccc(C[C@H](N)C(=O)O)cc1; NMeL = CN[C@@H](CC(C)C)C(=O)O; Pen = CC(C)(S)[C@H](N)C(=O)O; hCys = N[C@@H](CCS)C(=O)O; Sar = CNCC(=O)O

B1: Peptide No. 40 (peptide)
peptide: QRF[Pen]TGHFG[dP]LYPCNGP-NH2
modifications: disulfide 4-14; N-terminus assumed
SMILES: CC(C)C[C@@H]1NC(=O)[C@H]2CCCN2C(=O)CNC(=O)[C@H](Cc2ccccc2)NC(=O)[C@H](Cc2c[nH]cn2)NC(=O)CNC(=O)[C@H]([C@@H](C)O)NC(=O)[C@@H](NC(=O)[C@H](Cc2ccccc2)NC(=O)[C@H](CCCNC(=N)N)NC(=O)[C@@H](N)CCC(N)=O)C(C)(C)SSC[C@@H](C(=O)N[C@@H](CC(N)=O)C(=O)NCC(=O)N2CCC[C@H]2C(N)=O)NC(=O)[C@@H]2CCCN2C(=O)[C@H](Cc2ccc(O)cc2)NC1=O
B2: Peptide No. 44 (peptide)
peptide: QRF[Pen]TGHFG[dF]LYPCNGP-NH2
modifications: disulfide 4-14; N-terminus assumed
SMILES: CC(C)C[C@@H]1NC(=O)[C@@H](Cc2ccccc2)NC(=O)CNC(=O)[C@H](Cc2ccccc2)NC(=O)[C@H](Cc2c[nH]cn2)NC(=O)CNC(=O)[C@H]([C@@H](C)O)NC(=O)[C@@H](NC(=O)[C@H](Cc2ccccc2)NC(=O)[C@H](CCCNC(=N)N)NC(=O)[C@@H](N)CCC(N)=O)C(C)(C)SSC[C@@H](C(=O)N[C@@H](CC(N)=O)C(=O)NCC(=O)N2CCC[C@H]2C(N)=O)NC(=O)[C@@H]2CCCN2C(=O)[C@H](Cc2ccc(O)cc2)NC1=O
B3: Peptide No. 43 (peptide)
peptide: QRF[Pen]TGHFG[dI]LYPCNGP-NH2
modifications: disulfide 4-14; N-terminus assumed
SMILES: CC[C@@H](C)[C@H]1NC(=O)CNC(=O)[C@H](Cc2ccccc2)NC(=O)[C@H](Cc2c[nH]cn2)NC(=O)CNC(=O)[C@H]([C@@H](C)O)NC(=O)[C@@H](NC(=O)[C@H](Cc2ccccc2)NC(=O)[C@H](CCCNC(=N)N)NC(=O)[C@@H](N)CCC(N)=O)C(C)(C)SSC[C@@H](C(=O)N[C@@H](CC(N)=O)C(=O)NCC(=O)N2CCC[C@H]2C(N)=O)NC(=O)[C@@H]2CCCN2C(=O)[C@H](Cc2ccc(O)cc2)NC(=O)[C@H](CC(C)C)NC1=O
B4: Peptide No. 42 (peptide)
peptide: QRF[Pen]TGHFG[dH]LYPCNGP-NH2
modifications: disulfide 4-14; N-terminus assumed
SMILES: CC(C)C[C@@H]1NC(=O)[C@@H](Cc2c[nH]cn2)NC(=O)CNC(=O)[C@H](Cc2ccccc2)NC(=O)[C@H](Cc2c[nH]cn2)NC(=O)CNC(=O)[C@H]([C@@H](C)O)NC(=O)[C@@H](NC(=O)[C@H](Cc2ccccc2)NC(=O)[C@H](CCCNC(=N)N)NC(=O)[C@@H](N)CCC(N)=O)C(C)(C)SSC[C@@H](C(=O)N[C@@H](CC(N)=O)C(=O)NCC(=O)N2CCC[C@H]2C(N)=O)NC(=O)[C@@H]2CCCN2C(=O)[C@H](Cc2ccc(O)cc2)NC1=O
B5: Peptide No. 41 (peptide)
peptide: QRF[Pen]TGHFG[dR]LYPCNGP-NH2
modifications: disulfide 4-14; N-terminus assumed
SMILES: CC(C)C[C@@H]1NC(=O)[C@@H](CCCNC(=N)N)NC(=O)CNC(=O)[C@H](Cc2ccccc2)NC(=O)[C@H](Cc2c[nH]cn2)NC(=O)CNC(=O)[C@H]([C@@H](C)O)NC(=O)[C@@H](NC(=O)[C@H](Cc2ccccc2)NC(=O)[C@H](CCCNC(=N)N)NC(=O)[C@@H](N)CCC(N)=O)C(C)(C)SSC[C@@H](C(=O)N[C@@H](CC(N)=O)C(=O)NCC(=O)N2CCC[C@H]2C(N)=O)NC(=O)[C@@H]2CCCN2C(=O)[C@H](Cc2ccc(O)cc2)NC1=O
B6: Peptide No. 47 (peptide)
peptide: QRF[Pen]TGHF[dD]GLYPCNGP-NH2
modifications: disulfide 4-14; N-terminus assumed
SMILES: CC(C)C[C@@H]1NC(=O)CNC(=O)[C@@H](CC(=O)O)NC(=O)[C@H](Cc2ccccc2)NC(=O)[C@H](Cc2c[nH]cn2)NC(=O)CNC(=O)[C@H]([C@@H](C)O)NC(=O)[C@@H](NC(=O)[C@H](Cc2ccccc2)NC(=O)[C@H](CCCNC(=N)N)NC(=O)[C@@H](N)CCC(N)=O)C(C)(C)SSC[C@@H](C(=O)N[C@@H](CC(N)=O)C(=O)NCC(=O)N2CCC[C@H]2C(N)=O)NC(=O)[C@@H]2CCCN2C(=O)[C@H](Cc2ccc(O)cc2)NC1=O
B7: Peptide No. 217 (peptide)
peptide: RF[Pen]TGHF[dF][Sar][NMeL]YPC-NH2
modifications: disulfide 3-13; N-terminus assumed
SMILES: CC(C)C[C@H]1C(=O)N[C@@H](Cc2ccc(O)cc2)C(=O)N2CCC[C@H]2C(=O)N[C@H](C(N)=O)CSSC(C)(C)[C@H](NC(=O)[C@H](Cc2ccccc2)NC(=O)[C@@H](N)CCCNC(=N)N)C(=O)N[C@@H]([C@@H](C)O)C(=O)NCC(=O)N[C@@H](Cc2c[nH]cn2)C(=O)N[C@@H](Cc2ccccc2)C(=O)N[C@H](Cc2ccccc2)C(=O)N(C)CC(=O)N1C
B8: Peptide No. 46 (peptide)
peptide: QRFCTGHFGXLYPCNGP
modifications: Pen 4; Aib (aminoisobutyric acid) 10; disulfide 4-14; C-terminal amide
B9: Peptide No. 55 (peptide)
peptide: QRF[Pen]TGH[Phe(4-NH2)]GGLYPCNGP-NH2
modifications: disulfide 4-14; N-terminus assumed
SMILES: CC(C)C[C@@H]1NC(=O)CNC(=O)CNC(=O)[C@H](Cc2ccc(N)cc2)NC(=O)[C@H](Cc2c[nH]cn2)NC(=O)CNC(=O)[C@H]([C@@H](C)O)NC(=O)[C@@H](NC(=O)[C@H](Cc2ccccc2)NC(=O)[C@H](CCCNC(=N)N)NC(=O)[C@@H](N)CCC(N)=O)C(C)(C)SSC[C@@H](C(=O)N[C@@H](CC(N)=O)C(=O)NCC(=O)N2CCC[C@H]2C(N)=O)NC(=O)[C@@H]2CCCN2C(=O)[C@H](Cc2ccc(O)cc2)NC1=O
B10: Peptide No. 69 (peptide)
peptide: QRF[Pen]TGHFGGLYP[hCys]NGP-NH2
modifications: disulfide 4-14; N-terminus assumed
SMILES: CC(C)C[C@@H]1NC(=O)CNC(=O)CNC(=O)[C@H](Cc2ccccc2)NC(=O)[C@H](Cc2c[nH]cn2)NC(=O)CNC(=O)[C@H]([C@@H](C)O)NC(=O)[C@@H](NC(=O)[C@H](Cc2ccccc2)NC(=O)[C@H](CCCNC(=N)N)NC(=O)[C@@H](N)CCC(N)=O)C(C)(C)SSCC[C@@H](C(=O)N[C@@H](CC(N)=O)C(=O)NCC(=O)N2CCC[C@H]2C(N)=O)NC(=O)[C@@H]2CCCN2C(=O)[C@H](Cc2ccc(O)cc2)NC1=O
B11: Peptide No. 33 (peptide)
peptide: QRFCTGHFGGLYP[Pen]NGP-NH2
modifications: disulfide 4-14; N-terminus assumed
SMILES: CC(C)C[C@@H]1NC(=O)CNC(=O)CNC(=O)[C@H](Cc2ccccc2)NC(=O)[C@H](Cc2c[nH]cn2)NC(=O)CNC(=O)[C@H]([C@@H](C)O)NC(=O)[C@@H](NC(=O)[C@H](Cc2ccccc2)NC(=O)[C@H](CCCNC(=N)N)NC(=O)[C@@H](N)CCC(N)=O)CSSC(C)(C)[C@@H](C(=O)N[C@@H](CC(N)=O)C(=O)NCC(=O)N2CCC[C@H]2C(N)=O)NC(=O)[C@@H]2CCCN2C(=O)[C@H](Cc2ccc(O)cc2)NC1=O

Legend:
[1] = target: T1, soluble human FcRn (shFcRn) (human, UniProt P55899 24-297; P61769 21-119); assay: SPR pH 7.4
T1 construct: Biotinylated for the ELISA, amine-coupled to a CM5 chip for SPR; also called biotinylated shFcRn
Experimental: (§1) The following steps were performed to cross-link soluble human or cynomolgus FcRn to the dextran surface of a CM5 sensor chip (Biacore AB, Uppsala, Sweden) by an amine coupling reaction involving 1-ethyl-(3-dimethylaminopropyl)-carbodiimide hydrochloride (EDC) (Biacore AB, Uppsala, Sweden) and N-hydroxysuccinimide (NHS) (Biacore AB, Uppsala, Sweden) as recommended by Biacore (BIAapplications Handbook, version AB, section 4.2, Biacore AB, Uppsala, Sweden). […] Residual sites on the FcRn flow cell were blocked with 1 M ethanolamine hydrochloride pH 8.5 (Biacore AB, Uppsala, Sweden). A control flow cell was blocked with ethanolamine for reference subtraction. For analysis of the monomeric peptides, FcRn was coated to a final density of 4000-5000 response units (RU). For analysis of the peptide dimers, FcRn was coated to a density of 2000-2500 RU. All SPR measurements were performed using a BIACORE 3000 Instrument (Biacore AB Uppsala, Sweden). For measurements done at either pH 6 or pH 7.4, experiments were performed in 50 mM phosphate, 100 mM sodium chloride, 0.01% surfactant P20 (Biacore AB, Uppsala, Sweden).
(§2) Ten, 2-fold dilutions of the peptide were injected over the FcRn-CM5 chip at a rate of 20 μl/min for 2 min. The peptide was dissociated from the chip for 2.5 minutes with buffer. Any remaining peptide was removed from the chip with a 30 second injection of HBS-P buffer (Biacore AB, Uppsala, Sweden) at a rate of 30 μl/min. Sensorgrams were generated and analyzed using BiaEval software version 3.1 (Biacore AB, Uppsala, Sweden). The equilibrium RU observed for each injection was plotted against concentration. The equilibrium KD values were derived by analysis of the plots using the steady state affinity model included in the BiaEval software.

[2] = target: T1, soluble human FcRn (shFcRn); assay: IgG competition ELISA
Experimental: (§3) The wells were coated with 100 μl/well of 1 μg/ml biotinylated-shFcRn in Buffer A. The plate was sealed and incubated at 37° C. for 2 hours. Afterwards, the plate was washed with 200 μl/well of Buffer B (Buffer B: 100 mM MES pH 6, 150 mM NaCl, 0.5% BSA IgG-free (Jackson ImmunoResearch, West Grove, Pa.), 0.05% Tween-20). […] To allow for mixing, the plate was rocked for 2 minutes, sealed and incubated at 37° C. for 2 hours. […] The plate was covered, incubated for 30 minutes at room temperature and washed 4 times with 200 μl/well of ice-cold buffer B. SureBlue TMB substrate solution (100 μl/well, KPL, Gaithersburg, Md.) was added and the plate was allowed to incubate at room temperature until color developed, which took 5 to 10 minutes. Once color developed, 100 μl/well of TMB stop solution (KPL, Gaithersburg, Md.) was added and the absorbance was measured at 450 nm. The data was plotted as absorbance vs. peptide concentration to derive the inhibitory concentration 50% (IC₅₀) values.

[3] = target: T1, soluble human FcRn (shFcRn); assay: SPR pH 6
[4] = target: T1, soluble human FcRn (shFcRn); assay: SPR pH 6; remark: listed apart in the source
Experimental: as §1, §2

[5] = target: T1, soluble human FcRn (shFcRn); assay: SPR pH 6; remark: listed apart in the source
Experimental: as §1, §2

[6] = target: T1, soluble human FcRn (shFcRn); assay: IgG competition ELISA; remark: listed apart in the source
Experimental: as §3

T1 sequence (P55899 24-297 limits assumed, chain 1 of 2): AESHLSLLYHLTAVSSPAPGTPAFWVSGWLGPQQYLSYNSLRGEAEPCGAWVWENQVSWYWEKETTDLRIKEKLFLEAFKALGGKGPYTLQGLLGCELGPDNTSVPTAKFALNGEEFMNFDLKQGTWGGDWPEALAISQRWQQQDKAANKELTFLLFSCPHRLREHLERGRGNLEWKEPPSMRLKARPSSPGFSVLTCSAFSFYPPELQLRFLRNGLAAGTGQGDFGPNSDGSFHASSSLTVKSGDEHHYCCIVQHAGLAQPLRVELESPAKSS
T1 sequence (P61769 21-119 limits assumed, chain 2 of 2): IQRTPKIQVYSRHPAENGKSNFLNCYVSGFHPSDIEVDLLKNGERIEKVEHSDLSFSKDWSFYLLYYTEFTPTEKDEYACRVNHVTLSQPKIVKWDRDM

Row | Binder | Kd [1] [nM] | IC50 [2] [nM] | Kd [3] [nM] | other results
1 | B1 | 1100 | 1400 |  | 
2 | B2 | 100000 |  | 1700 | 
3 | B3 | 41000 | 18000 |  | 
4 | B4 | 20000 |  | 2000 | 
5 | B5 | 8800 | 8100 | 830 | 
6 | B6 | 4900 |  | 580 | 
7 | B7 |  |  |  | Kd [4]: 1400 nM
8 | B8 | 5300 | 2400 | 480 | 
9 | B9 |  |  |  | Kd [5]: 1000 nM
10 | B10 |  |  |  | IC50 [6]: 2000 nM
11 | B11 |  |  |  | IC50 [6]: 18000 nM
